The values that follow come from patent US20070092933A1 (AVIDIS, published 2007).

Data set [1] deals with the molecule itself. The experiment in a line: gel filtration (S75 26/60), self-association of monomers. In general terms: Size exclusion chromatography separates by hydrodynamic size, large species first.

B1: db-C4bp fusion protein (downstream box peptide fused N-terminal to the 57 amino acid core domain of the human C4bp alpha chain) (other)
chain: MASMNHKGSETPEGCEQVLTGKRLMQCLPNPEDVKMALEVYKLSLEIEQLELQRDSARQSTLDKEL
notes: Expressed in the cytosol of E. coli C41(DE3); Predicted monomer size 7491.5 Da; Recovered as an oligomer of about 60-67 kDa by gel filtration, with disulphide bonds between the monomers; also called native db-C4bp; product of plasmid pAVD 77
On to B1, for which the binding result in data set [1] was “binds”.

B2: DsbA (soluble DsbA of E. coli) (protein)
chain: AQYEDGKQYTTLEKPVAGAPQVLEFFSFFCPHCYQFEEVLHISDNVKKKLPEGVKMTKYHVNFMGGDLGKDLTQAWAVAMALGVEDKVTVPLFEGVQKTQTIRSASDIRDVFINAGIKGEEYDAAWNSFVVKSLVAQQEKAAADVQLRGVPAMFVNGKYQLNPQGMDTSNMDVFVQQYADTVKYLSEKK
B2: the “increase of turbidity at 650 nm (insulin disulphide reduction assay)” value with insulin is “the activity is directly comparable to the activity of soluble DsbA”.

B3: DsbA-C4bp fusion protein (human C4bp core fused to the C-terminus of the E. coli DsbA protein) (protein)
chain: AQYEDGKQYTTLEKPVAGAPQVLEFFSFFCPHCYQFEEVLHISDNVKKKLPEGVKMTKYHVNFMGGDLGKDLTQAWAVAMALGVEDKVTVPLFEGVQKTQTIRSASDIRDVFINAGIKGEEYDAAWNSFVVKSLVAQQEKAAADVQLRGVPAMFVNGKYQLNPQGMDTSNMDVFVQQYADTVKYLSEKKETPEGCEQVLTGKRLMQCLPNPEDVKMALEVYKLSLEIEQLELQRDSARQSTLDKEL
Turning to B3, the “increase of turbidity at 650 nm (insulin disulphide reduction assay)” value in the data set with insulin is “the DsbA present in the DsbA-C4bp fusion protein is still active, and the activity is directly comparable to the activity of soluble DsbA”.
